Where two headings read alike, the source gives them in different places.
Legend:
[1] = Degree of α-helicity by circular dichroism (CD) spectroscopy; format: physicochemical
[2] = molecular target: T1, SARS-CoV-2 S protein RBD RBD (Severe acute respiratory syndrome coronavirus 2), P0DTC2; conditions: modification not given
[3] = molecular target: T1, SARS-CoV-2 S protein RBD RBD (Severe …); conditions: modification not given; remark: listed apart in the source
[4] = molecular target: T1, SARS-CoV-2 S protein RBD RBD (Severe …); conditions: modification not given; remark: listed apart in the source
[5] = molecular target: T1, SARS-CoV-2 S protein RBD RBD (Severe …); conditions: modification not given; remark: listed apart in the source
[6] = molecular target: T1, SARS-CoV-2 S protein RBD RBD (Severe …); conditions: modification not given; remark: listed apart in the source

With `CC[C@H](C)[C@H](N)C(=O)N[C@@H](CCC(=O)O)C(=O)N[C@@H](CCC(=O)O)C(=O)N[C@@H](CCC(N)=O)C(=O)N[C@@H](C)C(=O)N[C@@H](CCCCN)C(=O)N[C@H](C(=O)N[C@@H](Cc1ccccc1)C(=O)N[C@@H](CC(C)C)C(=O)N[C@@H](CC(=O)O)C(=O)N[C@@H](CCCCNC(=O)CCS)C(=O)N[C@@H](Cc1ccccc1)C(=O)N[C@@H](CC(N)=O)C(=O)N[C@@H](Cc1c[nH]cn1)C(=O)N[C@@H](CCC(N)=O)C(=O)N[C@@H](C)C(=O)N[C@@H](CCC(=O)O)C(=O)N[C@@H](CC(=O)O)C(=O)N[C@@H](CC(C)C)C(=O)N[C@@H](Cc1ccccc1)C(=O)N[C@@H](Cc1ccc(O)cc1)C(=O)N[C@H](CCCCN)C(=O)O)[C@@H](C)O` [h1–Mpa] the “α-Helicity, H2O” value ([1]; solvent H2O) was 6.0%, the “α-Helicity, TFE” value ([1]; solvent trifluoroethanol (TFE)) was 85.3% and the “α-Helicity, WEM” value ([1]; solvent water–ethanol mixture (WEM)) was 37.8%.

Molecule DKWSAFLKEQSTIAQMYPLQECI [h2 (67-89)] has a Kd [2] of 40000 nM and a Kd [3] of 2580 nM.

NCGDKWSAFLKEQSTLAQMYPLQE [900h2 (64-87)] gave a Kd [4] of 7220 nM and a Kd [5] of 1700 nM.

For IEEQAKTFLDKFNHQAEDLFYK [h1-Mpa (21-42)], the Kd [6] was 1070 nM.

From article PMC9798946, “Properties and Activity of Peptide Derivatives of ACE2 Cellular Receptor and Their Interaction with SARS-CoV-2 S Protein Receptor-Binding Domain” (Doklady. Biochemistry and Biophysics, 2022)
